Tests used:
Details in all cases: both partners purified
[1] = target: T1, PAPOA structured core (His8-3C-PAPOA residues 1–513-FLAG), wild type (human, UniProt P51003 1-513); test: pull-down; FLAG pull-down on α-FLAG M2 Protein G Dynabeads; FLAG-tagged PAPOA core 2.5 µM as bait, FIP1 25 µM (10× excess); 20 mM HEPES-NaOH pH 7.5, 150 mM NaCl, 5 mM MgCl2, 0.01% NP-40 substitute, 4°C; Coomassie-stained SDS-PAGE
T1 construct: A 3C site lies between His8 and PAPOA; no cleavage step is described in the purification; also called PAPOA core; PAPOA_(1–513); source: E. coli BL21 STAR (DE3) pRARE, purified (Talon, HiTrap Heparin, Superdex 200); not shown: FLAG, C-terminal, kept
T1 sequence (P51003 1-513): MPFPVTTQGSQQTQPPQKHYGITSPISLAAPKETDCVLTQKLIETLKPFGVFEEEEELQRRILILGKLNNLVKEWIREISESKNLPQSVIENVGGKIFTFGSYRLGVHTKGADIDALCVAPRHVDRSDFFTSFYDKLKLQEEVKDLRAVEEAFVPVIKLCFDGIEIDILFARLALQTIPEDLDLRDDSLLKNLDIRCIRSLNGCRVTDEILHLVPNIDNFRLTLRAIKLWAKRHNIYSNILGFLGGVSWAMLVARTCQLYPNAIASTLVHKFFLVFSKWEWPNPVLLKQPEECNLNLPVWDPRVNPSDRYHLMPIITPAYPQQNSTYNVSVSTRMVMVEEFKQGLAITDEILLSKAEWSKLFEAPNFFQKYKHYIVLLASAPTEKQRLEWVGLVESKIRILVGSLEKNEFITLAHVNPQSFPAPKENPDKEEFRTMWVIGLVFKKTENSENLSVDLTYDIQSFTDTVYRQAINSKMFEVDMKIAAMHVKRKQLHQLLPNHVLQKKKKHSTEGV

[2] = target: T2, CPSF160–WDR33 (CPSF160 coexpressed with TwinStrep3C-WDR33 residues 1–413-FLAG) (human, UniProt Q10570 1-1443; Q9C0J8 1-413); test: pull-down; FLAG pull-down on α-FLAG M2 Protein G Dynabeads; FLAG-tagged WDR33 (CPSF160–WDR33) 1.5 µM as bait, PAPOAC 15 µM; 20 mM HEPES-NaOH pH 7.5, 150 mM NaCl, 0.01% NP-40 substitute, no MgCl2, 4°C; Coomassie-stained SDS-PAGE
T2 construct: human CPSF160 (mPSF subunit); human WDR33 (mPSF subunit), residues 1-413; A 3C site follows the TwinStrep tag; no cleavage step is described; also called FLAG-tagged WDR33; source: Sf9, baculovirus coexpression, purified (StrepTactin XT, MonoQ, Superdex 200); not shown: FLAG, C-terminal, kept
T2 sequence (Q10570 whole entry, chain 1 of 2, the tested form may be a part): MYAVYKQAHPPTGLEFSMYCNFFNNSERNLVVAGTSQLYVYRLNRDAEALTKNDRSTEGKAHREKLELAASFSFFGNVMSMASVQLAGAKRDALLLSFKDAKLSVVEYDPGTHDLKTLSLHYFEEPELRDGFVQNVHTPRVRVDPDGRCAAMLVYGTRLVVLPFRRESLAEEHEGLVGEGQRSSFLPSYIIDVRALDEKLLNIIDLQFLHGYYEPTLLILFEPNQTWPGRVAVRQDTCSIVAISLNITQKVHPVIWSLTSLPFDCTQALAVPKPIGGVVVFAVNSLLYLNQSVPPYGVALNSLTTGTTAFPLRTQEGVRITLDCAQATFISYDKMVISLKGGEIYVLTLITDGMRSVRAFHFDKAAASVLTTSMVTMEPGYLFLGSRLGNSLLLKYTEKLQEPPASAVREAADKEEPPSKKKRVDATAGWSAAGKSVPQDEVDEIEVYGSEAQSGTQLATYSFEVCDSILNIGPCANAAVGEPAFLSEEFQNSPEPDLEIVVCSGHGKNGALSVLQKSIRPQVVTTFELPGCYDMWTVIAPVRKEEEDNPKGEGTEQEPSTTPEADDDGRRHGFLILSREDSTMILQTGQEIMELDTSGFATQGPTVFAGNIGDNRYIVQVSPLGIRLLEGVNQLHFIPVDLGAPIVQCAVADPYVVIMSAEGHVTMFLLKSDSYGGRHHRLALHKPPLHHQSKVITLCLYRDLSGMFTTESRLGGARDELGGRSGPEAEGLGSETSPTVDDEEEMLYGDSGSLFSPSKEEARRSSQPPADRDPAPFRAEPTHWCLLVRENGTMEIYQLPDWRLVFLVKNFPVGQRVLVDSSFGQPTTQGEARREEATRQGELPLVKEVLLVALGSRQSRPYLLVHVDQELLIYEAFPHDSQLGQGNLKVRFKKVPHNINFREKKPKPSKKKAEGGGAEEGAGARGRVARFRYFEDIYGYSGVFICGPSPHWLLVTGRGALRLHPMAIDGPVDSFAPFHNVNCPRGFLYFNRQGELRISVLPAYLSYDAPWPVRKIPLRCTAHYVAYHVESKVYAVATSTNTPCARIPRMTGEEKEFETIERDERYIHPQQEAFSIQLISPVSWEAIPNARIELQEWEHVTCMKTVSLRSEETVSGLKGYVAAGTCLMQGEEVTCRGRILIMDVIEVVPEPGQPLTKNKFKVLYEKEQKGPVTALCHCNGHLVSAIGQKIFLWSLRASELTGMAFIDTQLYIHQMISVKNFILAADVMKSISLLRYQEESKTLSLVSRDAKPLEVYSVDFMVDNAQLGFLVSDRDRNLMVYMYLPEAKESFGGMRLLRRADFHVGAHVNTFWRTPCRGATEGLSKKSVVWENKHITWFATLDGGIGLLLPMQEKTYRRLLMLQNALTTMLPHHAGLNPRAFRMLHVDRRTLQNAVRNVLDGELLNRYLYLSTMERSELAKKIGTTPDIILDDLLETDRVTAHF
T2 sequence (Q9C0J8 1-413, chain 2 of 2): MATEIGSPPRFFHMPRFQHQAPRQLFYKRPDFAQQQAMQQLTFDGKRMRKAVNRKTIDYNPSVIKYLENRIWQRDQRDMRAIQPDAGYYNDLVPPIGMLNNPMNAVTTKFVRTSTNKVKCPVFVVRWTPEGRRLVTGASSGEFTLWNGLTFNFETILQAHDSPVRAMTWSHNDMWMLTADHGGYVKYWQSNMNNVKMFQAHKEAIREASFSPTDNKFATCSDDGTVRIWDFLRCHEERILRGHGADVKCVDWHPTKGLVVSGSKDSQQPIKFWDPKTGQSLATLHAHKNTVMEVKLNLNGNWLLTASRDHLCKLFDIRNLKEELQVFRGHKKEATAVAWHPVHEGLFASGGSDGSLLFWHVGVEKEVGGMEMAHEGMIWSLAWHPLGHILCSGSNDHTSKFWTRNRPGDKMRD

[3] = target: T1, PAPOA structured core (His8-3C-PAPOA …); test: pull-down; FLAG pull-down on α-FLAG M2 Protein G Dynabeads; FLAG-tagged PAPOA core 2.5 µM as bait, PAPOAC 100 µM (40× excess); 20 mM HEPES-NaOH pH 7.5, 50 mM NaCl, 5 mM MgCl2, 0.01% NP-40 substitute, 4°C; Coomassie-stained SDS-PAGE

Row | Binder | binding result [1] | binding result [2] | binding result [3]
1 | ETEDDSDSDSDDDEDDVHVTIGDIKTGAPQYGSY (peptide, UniProt Q6UN15 80-113, looked up, A 3C site follows MBP; no cleavage step is described in the purification; also called minimal FIP1 peptide; source: E. coli BL21 STAR (DE3) pRARE, purified (Amylose resin, Superdex 200)) [minimal FIP1 construct (His6-MBP-3C-FIP1 residues 80–113), wild type] | binds | – | –
2 | DLSDIPALPANPIPVIKNSIKLRLNR (human poly(A) polymerase alpha (PAPOA), C-terminal motif, residues 720-745; A 3C site follows MBP; no cleavage step is described in the purification; also called PAPOA C terminus; PAPOAC peptide; source: E. coli BL21 STAR (DE3) pRARE, purified (Amylose resin, Superdex 200)) [minimal PAPOAC construct (His6-MBP-3C-PAPOA residues 720–745), wild type] | – | binds | binds
